This note sets out measurements from PMC11100747 (bioRxiv, 2024).

For test [1], the target named is T1, Ric1 (S. cerevisiae, UniProt P40395 1-1056).
T1 sequence: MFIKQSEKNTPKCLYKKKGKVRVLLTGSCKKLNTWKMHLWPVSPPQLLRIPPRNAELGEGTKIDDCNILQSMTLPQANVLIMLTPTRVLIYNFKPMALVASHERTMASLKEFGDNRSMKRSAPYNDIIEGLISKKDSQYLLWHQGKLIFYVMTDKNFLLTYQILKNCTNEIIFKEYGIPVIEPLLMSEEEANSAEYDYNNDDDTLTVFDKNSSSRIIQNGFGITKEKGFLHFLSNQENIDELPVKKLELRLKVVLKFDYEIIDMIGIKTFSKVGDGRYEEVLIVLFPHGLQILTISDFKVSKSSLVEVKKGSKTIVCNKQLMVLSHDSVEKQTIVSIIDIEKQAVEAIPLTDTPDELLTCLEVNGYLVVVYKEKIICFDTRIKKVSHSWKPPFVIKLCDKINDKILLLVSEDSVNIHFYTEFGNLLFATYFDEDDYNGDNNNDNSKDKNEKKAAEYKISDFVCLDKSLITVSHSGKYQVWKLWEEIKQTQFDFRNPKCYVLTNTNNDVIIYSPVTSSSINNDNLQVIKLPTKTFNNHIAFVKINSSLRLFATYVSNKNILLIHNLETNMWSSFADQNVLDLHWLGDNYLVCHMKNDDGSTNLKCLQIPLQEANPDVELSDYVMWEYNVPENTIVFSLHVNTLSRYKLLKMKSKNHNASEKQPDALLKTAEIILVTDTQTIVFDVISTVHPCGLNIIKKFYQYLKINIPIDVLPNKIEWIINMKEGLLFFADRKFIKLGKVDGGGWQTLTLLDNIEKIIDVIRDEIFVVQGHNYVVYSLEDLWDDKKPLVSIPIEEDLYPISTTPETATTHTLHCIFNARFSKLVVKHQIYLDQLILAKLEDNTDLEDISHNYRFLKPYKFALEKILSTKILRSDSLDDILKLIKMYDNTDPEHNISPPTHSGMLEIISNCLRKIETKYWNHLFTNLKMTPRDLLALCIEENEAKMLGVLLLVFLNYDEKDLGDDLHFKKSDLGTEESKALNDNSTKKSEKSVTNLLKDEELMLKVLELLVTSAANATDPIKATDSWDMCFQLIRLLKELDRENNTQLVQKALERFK
The experiment in a line: cryo-EM structure.

Test [2] has as its target T2, Gdi1 (yeast, UniProt P39958 1-451).
T2 sequence: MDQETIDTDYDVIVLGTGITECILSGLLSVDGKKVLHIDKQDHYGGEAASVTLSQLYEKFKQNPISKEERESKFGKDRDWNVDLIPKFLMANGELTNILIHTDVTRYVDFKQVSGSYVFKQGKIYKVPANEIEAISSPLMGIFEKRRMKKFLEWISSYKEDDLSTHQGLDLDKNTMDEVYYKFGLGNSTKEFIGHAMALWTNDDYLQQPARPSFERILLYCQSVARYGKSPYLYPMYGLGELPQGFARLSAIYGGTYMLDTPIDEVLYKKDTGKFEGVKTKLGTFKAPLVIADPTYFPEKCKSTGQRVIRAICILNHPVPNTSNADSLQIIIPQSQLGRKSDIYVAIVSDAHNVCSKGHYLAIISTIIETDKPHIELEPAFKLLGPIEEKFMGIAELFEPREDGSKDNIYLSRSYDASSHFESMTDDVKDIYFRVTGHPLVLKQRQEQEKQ
Put plainly: SEC.

B1: Rgp1 (natural protein)
chain: MRAHRIDTFLIRENIKLEIIHESNSYFGGEHISIAFRFKHLGSQHELFNYKEKLLTVDKAVEEKLEQQAKVQDDGEGTMENQTWSLKSLLGAFKRTGEPEESVDVDNMKMLNESKMLREKIQKQMYFHQPVTLISGYVQISGVFQYDSEVISESKFKQDEVKMVGLDIVPGHTTNSVLALEDGEHFKGKRNLTNYLNSDYTNVTNGLLFSESGSRGRTGTYNERTLMISNDTSIKTLPLLLIPQTLLFSEISLEPGEVRTFYFKSTKLPKDICPSYSSSKVASINYTLEVGADVLSDDNIEKFSNRVPITIAPYISSNAEQYTSRLDKPAIILKTGNIKELKPRLFTRKVSTASAVSFGRRKSSIIDIDSPLEDNEFVKRVKKNFIELVESNQNVSRDIDELIDLQMGVQFGKDEDSSDPEPNDSHFSNEMVTSAESSLRSDAVTKRRKSYSVRDNISNLEQKMWNDCSLVKSDENSNLLPQLINLQNAYQINRNNETMAKVSLSAPFYKTTDDINLVIELDPITTPLLKVTSLTVSLESFEIINPKYKTEGKGIGSKPKGNSVYEKHFICFDECKSVSVKLLPPRSPTNQITGQFKTDVFQHKWMIGLKFVIIAKTESITLDQFYEDKKGILFHSKENLEGEEFTCYVPIPILCTSEDFMGW
With B1, the binding result in test [1] is given as “binds”.

B2: prenylated Rab6-mantGDP (natural protein)
chain: MSRSGKSLTKYKIVFLGEQGVGKTSLITRFMYDTFDDHYQATIGIDFLSKTMYLDDKTIRLQLWDTAGQERFRSLIPSYIRDSRVAIIVYDITKRKSFEYIDKWIEDVKNERGDENVILCIVGNKSDLSDERQISTEEGEKKAKLLGAKIFMETSTKAGYNVKALFKKIAKSLPEFQNSESTPLDSENANSANQNKPGVIDISTAEEQEQSACQC
modifications: C-terminal cysteines prenylated (geranylgeranyl)
For the molecule B2, the binding result in test [2] is given as “binds”.
